The target of one test is T1, XSA2 (Xenopus laevis (endogenous in egg …, UniProt Q9DGN0 1-1194)).
T1 sequence: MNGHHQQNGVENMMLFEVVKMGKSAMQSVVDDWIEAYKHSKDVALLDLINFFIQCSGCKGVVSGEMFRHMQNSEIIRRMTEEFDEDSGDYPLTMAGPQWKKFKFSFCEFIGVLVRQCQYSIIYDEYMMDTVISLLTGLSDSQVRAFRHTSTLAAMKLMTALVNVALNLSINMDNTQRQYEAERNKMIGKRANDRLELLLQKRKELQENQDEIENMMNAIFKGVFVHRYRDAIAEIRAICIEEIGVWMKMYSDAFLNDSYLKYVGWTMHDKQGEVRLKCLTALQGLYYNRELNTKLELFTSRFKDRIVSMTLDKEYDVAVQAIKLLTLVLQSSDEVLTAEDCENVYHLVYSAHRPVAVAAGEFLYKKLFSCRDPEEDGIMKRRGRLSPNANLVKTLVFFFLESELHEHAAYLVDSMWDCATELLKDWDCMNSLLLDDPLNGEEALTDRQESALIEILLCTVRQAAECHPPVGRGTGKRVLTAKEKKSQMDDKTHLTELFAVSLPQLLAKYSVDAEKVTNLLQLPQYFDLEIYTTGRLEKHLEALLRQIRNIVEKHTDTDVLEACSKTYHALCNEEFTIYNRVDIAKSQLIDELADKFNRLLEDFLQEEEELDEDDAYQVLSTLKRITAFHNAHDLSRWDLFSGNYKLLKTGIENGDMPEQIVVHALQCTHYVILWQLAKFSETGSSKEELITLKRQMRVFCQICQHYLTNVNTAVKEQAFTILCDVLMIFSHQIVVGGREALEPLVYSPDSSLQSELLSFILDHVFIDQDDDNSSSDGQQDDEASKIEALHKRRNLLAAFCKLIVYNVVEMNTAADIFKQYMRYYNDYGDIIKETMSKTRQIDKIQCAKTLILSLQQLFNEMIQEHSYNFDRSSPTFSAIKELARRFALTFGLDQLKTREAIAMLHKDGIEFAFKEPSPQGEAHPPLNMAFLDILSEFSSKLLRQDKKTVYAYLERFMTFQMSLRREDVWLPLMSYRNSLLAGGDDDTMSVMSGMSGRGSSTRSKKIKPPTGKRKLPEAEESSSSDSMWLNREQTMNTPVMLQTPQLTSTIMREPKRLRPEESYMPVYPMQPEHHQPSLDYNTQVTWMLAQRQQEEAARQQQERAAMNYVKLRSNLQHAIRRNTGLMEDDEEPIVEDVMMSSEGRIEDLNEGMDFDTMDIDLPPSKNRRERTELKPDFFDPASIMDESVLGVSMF
As to the kind of experiment: co-IP.

The next test has as its target T2, XSA1 (Xenopus laevis (endogenous in egg …, UniProt Q9DGN1 1-1265)).
T2 sequence: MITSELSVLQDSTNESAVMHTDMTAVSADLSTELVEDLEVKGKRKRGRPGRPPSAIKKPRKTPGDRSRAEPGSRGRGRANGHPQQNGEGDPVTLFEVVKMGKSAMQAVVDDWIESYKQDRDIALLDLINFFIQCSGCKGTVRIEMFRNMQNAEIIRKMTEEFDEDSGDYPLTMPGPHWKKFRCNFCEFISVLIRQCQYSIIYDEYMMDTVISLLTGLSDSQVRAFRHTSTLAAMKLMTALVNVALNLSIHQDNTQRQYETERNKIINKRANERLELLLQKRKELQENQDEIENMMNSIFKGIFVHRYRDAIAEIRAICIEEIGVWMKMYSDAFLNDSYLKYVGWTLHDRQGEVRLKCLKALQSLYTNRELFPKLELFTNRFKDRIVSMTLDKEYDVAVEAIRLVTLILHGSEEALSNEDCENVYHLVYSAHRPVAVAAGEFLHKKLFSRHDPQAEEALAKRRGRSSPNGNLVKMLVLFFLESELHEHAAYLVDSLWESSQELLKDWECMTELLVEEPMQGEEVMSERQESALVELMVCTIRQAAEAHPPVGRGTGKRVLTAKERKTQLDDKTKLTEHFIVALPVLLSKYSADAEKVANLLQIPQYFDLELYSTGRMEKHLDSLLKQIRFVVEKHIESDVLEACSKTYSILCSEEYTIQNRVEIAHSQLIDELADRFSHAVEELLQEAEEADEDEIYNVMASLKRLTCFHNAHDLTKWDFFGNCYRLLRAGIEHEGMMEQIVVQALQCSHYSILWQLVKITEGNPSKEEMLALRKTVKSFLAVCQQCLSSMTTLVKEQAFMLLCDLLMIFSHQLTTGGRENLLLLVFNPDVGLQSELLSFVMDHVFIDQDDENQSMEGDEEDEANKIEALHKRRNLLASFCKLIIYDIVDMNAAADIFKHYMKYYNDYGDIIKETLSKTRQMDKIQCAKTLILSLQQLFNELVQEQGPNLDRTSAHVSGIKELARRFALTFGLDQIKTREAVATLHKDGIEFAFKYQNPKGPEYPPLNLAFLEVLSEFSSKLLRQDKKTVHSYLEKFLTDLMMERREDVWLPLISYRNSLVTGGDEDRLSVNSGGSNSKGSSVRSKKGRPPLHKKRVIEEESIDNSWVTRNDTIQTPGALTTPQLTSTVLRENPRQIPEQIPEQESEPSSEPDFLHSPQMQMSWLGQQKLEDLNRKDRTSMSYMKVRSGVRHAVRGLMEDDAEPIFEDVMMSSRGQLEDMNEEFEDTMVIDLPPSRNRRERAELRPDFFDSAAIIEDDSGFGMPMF
As to the kind of experiment: co-IP.

B1: XRAD21 (natural protein)
chain: MFYAHFVLSKRGPLAKIWLAAHWDKKLTKAHVFECNLESSVESIICPKVKMALRTSGHLLLGVVRIYHRKAKYLLADCNEAFIKIKMAFRPGVVDLPEENREAAYNAITLPEEFHDFDQPLPDLDDIDVAQQFSLNQSRVEEITMREEVSNINILQDNDFGDFGMDDREMMREGSAFEDDMLTTNASNLKLEPEQSTSQLNEKSNHLEYDDQYKDDNFGEGNEGGILDDKLLSNDAGGIFDDPPAMPEEGVAMPEQPVHDDLDDDDNVSMGAPDSPDSVDPVEPLPTMTDQTTLVPNEEEAFALEPIDITVKETKAKRKRKLIVDSVKELDSKTIRAQLSDYSDIVTTLDLAPPTKKLMMWKETGGVEKLFSLPAQPLWNTRLLKLFTRCLTPLVLDDLRKRRKGGEADNLDEFLKEFENPEVPREELRPQDVIDQPILEEASHLQESLMEGSRTHLDDTIMPPPPPKQGVKRDSLQMEPEPMPMMQEAEPQIEMPPPPLPPPLELPPEEPQSISDLIPELNLLPEKEKEKDEEEEEEEEDTTGTEQDQEERRWNKRTQQMLHGLQRVLAKTGAESISLLDLCRNTNRKQAAAKFYSFLVLKKQQAIELTQREPYSDIVATPGPRFHTV
As for B1, in the test with XSA2, the “percent depleted from the extract by anti-XSA2” value was approximately 10%. Moreover, the “percent depleted from the extract by anti-XSA1” value in the test with XSA1 is approximately 90%.

For the origin of these results see paper PMC2175199 (The Journal of Cell Biology, 2000).
